Where a chain is given by its changes, count along the chain named. Names may count otherwise.
T1: full length human TMPRSS6 with a C-terminal triple myc tag on HEK293.hHJV cells (HEK293.hHJV/3xMyc.hTMPRSS6) (human, UniProt Q8IU80 1-811)
T1 sequence: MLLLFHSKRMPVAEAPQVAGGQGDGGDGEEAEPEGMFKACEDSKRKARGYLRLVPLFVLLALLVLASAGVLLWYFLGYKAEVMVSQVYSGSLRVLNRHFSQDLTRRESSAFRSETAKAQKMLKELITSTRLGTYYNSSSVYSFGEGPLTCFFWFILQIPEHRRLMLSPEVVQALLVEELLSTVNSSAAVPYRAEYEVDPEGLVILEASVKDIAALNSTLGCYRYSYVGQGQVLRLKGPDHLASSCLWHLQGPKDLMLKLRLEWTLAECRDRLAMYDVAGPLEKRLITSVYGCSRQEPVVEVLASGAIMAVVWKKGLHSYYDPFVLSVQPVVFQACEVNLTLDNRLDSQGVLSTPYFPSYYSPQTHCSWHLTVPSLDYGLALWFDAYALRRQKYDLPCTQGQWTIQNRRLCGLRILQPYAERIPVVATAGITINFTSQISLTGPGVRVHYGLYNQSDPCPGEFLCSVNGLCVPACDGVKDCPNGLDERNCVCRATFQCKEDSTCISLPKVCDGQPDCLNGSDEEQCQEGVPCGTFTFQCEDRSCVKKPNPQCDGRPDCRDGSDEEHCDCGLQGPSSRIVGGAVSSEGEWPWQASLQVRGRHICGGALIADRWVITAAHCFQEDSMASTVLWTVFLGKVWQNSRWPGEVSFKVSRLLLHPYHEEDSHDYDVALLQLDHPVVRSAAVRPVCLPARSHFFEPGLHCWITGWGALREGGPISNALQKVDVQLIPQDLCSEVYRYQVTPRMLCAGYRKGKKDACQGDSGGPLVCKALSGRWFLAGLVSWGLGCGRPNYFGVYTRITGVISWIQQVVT

T2: full-length mouse TMPRSS6 with a C-terminal triple myc tag on HEK293.hHJV cells (HEK293.hHJV/3xMyc.mTMPRSS6) (mouse, UniProt Q9DBI0 1-811)
T2 sequence: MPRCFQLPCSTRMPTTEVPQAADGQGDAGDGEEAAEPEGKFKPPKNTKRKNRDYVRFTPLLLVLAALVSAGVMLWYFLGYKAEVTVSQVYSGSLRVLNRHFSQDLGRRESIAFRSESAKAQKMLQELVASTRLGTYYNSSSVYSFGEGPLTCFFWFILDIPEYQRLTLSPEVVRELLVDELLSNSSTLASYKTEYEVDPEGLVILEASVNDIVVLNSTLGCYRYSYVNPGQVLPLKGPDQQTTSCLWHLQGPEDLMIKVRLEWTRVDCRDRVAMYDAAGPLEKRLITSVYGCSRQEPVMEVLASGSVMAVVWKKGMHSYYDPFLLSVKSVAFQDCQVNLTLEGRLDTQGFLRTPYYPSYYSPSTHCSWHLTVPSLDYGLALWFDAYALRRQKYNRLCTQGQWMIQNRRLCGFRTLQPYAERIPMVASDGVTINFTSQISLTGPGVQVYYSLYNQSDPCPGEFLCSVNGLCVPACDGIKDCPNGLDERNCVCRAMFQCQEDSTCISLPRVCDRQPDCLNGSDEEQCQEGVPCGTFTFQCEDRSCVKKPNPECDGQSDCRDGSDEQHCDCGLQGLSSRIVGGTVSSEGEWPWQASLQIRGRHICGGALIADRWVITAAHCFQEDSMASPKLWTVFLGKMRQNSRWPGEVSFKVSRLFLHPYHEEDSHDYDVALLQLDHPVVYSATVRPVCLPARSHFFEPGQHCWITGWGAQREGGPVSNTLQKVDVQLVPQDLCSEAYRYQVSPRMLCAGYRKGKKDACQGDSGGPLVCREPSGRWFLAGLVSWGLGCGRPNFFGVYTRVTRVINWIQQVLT

T3: extracellular domain of cynomolgous monkey TMPRSS6 (V673M) with N-terminal 8xHistidine, CHO conditioned media (cynomolgous monkey, UniProt Q8IU80 77-811 (human entry))
T3 chain: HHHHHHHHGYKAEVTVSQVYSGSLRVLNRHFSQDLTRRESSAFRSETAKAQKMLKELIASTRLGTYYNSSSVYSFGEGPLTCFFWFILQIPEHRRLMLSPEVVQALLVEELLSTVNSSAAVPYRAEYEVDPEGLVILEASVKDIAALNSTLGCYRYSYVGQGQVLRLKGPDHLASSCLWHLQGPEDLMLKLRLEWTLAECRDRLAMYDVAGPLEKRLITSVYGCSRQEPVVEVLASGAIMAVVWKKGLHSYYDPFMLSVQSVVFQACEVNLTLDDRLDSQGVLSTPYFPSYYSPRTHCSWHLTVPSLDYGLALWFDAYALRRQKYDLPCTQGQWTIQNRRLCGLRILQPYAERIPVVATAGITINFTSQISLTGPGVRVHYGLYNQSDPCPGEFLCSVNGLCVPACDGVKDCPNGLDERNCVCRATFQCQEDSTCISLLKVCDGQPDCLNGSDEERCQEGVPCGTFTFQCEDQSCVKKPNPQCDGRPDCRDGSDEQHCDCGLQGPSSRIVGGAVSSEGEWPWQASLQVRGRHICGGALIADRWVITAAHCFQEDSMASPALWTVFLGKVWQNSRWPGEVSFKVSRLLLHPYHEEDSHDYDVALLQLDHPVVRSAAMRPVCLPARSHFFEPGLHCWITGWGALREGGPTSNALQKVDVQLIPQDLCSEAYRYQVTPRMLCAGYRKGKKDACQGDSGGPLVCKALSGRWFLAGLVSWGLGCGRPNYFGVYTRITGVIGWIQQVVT

B1: REGN8023 (antibody, human IgG4 S228P, kappa, V domains shown)
VH: EVQLVESGGGLVKPGGSLRISCAASGFIFVDYAMHWVRQAPGKGLEWVSGISWNSGSIGYADSVKGRFTISRDNAKKSLYLQMSGLRPEDTALYYCVKSGFYYVRSYFDNWGQGTLVTVSS
VL: DIVMTQSPLSLPVTPGEPASISCRSSQSLLDSDDGNTYLDWYLRKPGQSPQLLIYTLSYRASGVPDRFSGSGSGTDFTLKISRVEADDVGVYYCMQRIEFPLTFGGGTKVEIKR
notes: fully human; human IgG4 Fc with hinge S108P; also called mAb37699
B2: REGN7977 (antibody, V domains shown)
VH: EVQLVESGGGLVKPGGSLRVSCAASGVTFSNVWMSWVRQVPGKGLEWVGRIKSKTDGGTTDYAAPVKGRFTISKDDSKNTLFLQMNSLKTEDTAVYYCTTETGDFWSGYYPRFQHWGQGTLVTVSS
VL: DIQMTQSPSSLSASVGDRVTITCRASQYISTYLNWYQQKPGKAPSLLIYAASSLQSGVPSRFSGSGSGTDFTLTISSLQPEDFASYSCQQSYSTPPYTFGQGTKLEIKR
notes: fully human; human IgG4 Fc with hinge S108P; also called mAb41465
B3: REGN7999 (antibody, human IgG4 S228P, kappa, V domains shown)
VH: EVQLVESGGGLVQPGGSLRLSCAASGFTFSSYAMTWVRQAPGKGLEWVSAISGSDTSTYYADSVKGRFTISRDNSKNTLFLQMNSLRAEDTAVYYCAKHQDYDFSYYYSAMDVWGQGTTVTVSS
VL: DIQMTQSPSSLSASVGDRVIITCRASQDFNSWLAWYQQKPGKAPKLLIYAASSLQSGVPSRFSGSGSGTDFTLTISSLQPEDFATYYCQQTDSFPFTFGPGTKVDIKR
notes: fully human; human IgG4 Fc with hinge S108P; also called mAb41450
B4: REGN7969 (antibody, human IgG4 S228P, kappa, V domains shown)
VH: QVQLVESGGGVVQPGRSLRLSCAASGFTFNNYGMHWVRQAPGKGLEWVAIISYDGSNEYYSDSVKGRFTISRDNSKNTLYLQMNSLRAEDTAVYYCARDQDYGGNLFHYWGQGTLVTVSS
VL: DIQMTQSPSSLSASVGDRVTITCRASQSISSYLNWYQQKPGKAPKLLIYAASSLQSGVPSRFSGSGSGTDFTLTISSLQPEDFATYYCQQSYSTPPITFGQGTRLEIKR
notes: fully human; human IgG4 Fc with hinge S108P; also called mAb37746
B5: REGN7971 (antibody, human IgG4 S228P, kappa, V domains shown)
VH: B4 VH with N30S, N31T, E58D, S61L, S85N, R98K, D101G, H108A, Y109S
VL: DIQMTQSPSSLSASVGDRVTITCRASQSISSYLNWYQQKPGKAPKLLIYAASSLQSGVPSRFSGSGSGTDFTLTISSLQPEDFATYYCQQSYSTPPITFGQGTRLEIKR
notes: fully human; human IgG4 Fc with hinge S108P; also called mAb37763
B6: REGN7974 (antibody, human IgG4 S228P, kappa, V domains shown)
VH: EVQLVESGGGLVQPGRSLRLSCIASGFNFGDYGMSWVRQAPGKGLEWVGFIRSKAYGGTTEYAASVKGRFTISRDDSKSIAYLQMNSLKTEDAAMYYCSRDYYDILTGYYGDYWGQGTLVTVSS
VL: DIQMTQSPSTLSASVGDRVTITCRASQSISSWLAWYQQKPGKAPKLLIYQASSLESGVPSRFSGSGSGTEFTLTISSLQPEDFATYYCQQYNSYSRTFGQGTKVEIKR
notes: fully human; human IgG4 Fc with hinge S108P; also called mAb41422

Each binder was assayed against T1, full length human TMPRSS6 with a … (assay: cell-based or functional assay).

| IC50, soluble hHJV release (ELISA) | Inhibition (%) of soluble hHJV release (ELISA) | Binder |
| --- | --- | --- |
| 0.149 nM | > 99% | B1 |
| 0.127 nM | > 99% | B2 |
| 0.102 nM | > 99% | B3 |
| 0.0712 nM | > 99% | B4 |
| 0.0774 nM | 89.9% | B5 |
| 0.154 nM | > 99% | B6 |

Each binder was assayed against T2, full-length mouse TMPRSS6 with a … (assay: cell-based or functional assay).

| IC50, soluble hHJV release (ELISA) | Inhibition (%) of soluble hHJV release (ELISA) | Binder |
| --- | --- | --- |
| 0.274 nM | 42% | B1 |
|  | 46.4% | B2 |
| 0.0826 nM | 98.5% | B3 |
|  | < 1% | B4 |
|  | 10.2% | B5 |
|  | 11.8% | B6 |

Biological target: T3, extracellular domain of cynomolgous …
Experiment: cell-based or functional assay

| % inhibition of enzymatic activity, CM bioassay | IC50, CM bioassay | Binder |
| --- | --- | --- |
| 98% | 0.74 nM | B1 |
| 89% | 50 nM | B2 |
| 98% | 1.7 nM | B3 |
| 66% | > 50 nM | B4 |
| 68% | > 50 nM | B5 |
| 69% | > 50 nM | B6 |

These binders were tested against extracellular domain of Human TMPRSS6 with N-terminal 8xHistidine, CHO conditioned media (human, UniProt Q8IU80 68-802, limits assumed) (assay: cell-based or functional assay).
Sequence of extracellular domain of Human TMPRSS6 with N-terminal 8xHistidine, CHO conditioned media (Q8IU80 other isoform, or with tags, fused parts or gaps limits assumed): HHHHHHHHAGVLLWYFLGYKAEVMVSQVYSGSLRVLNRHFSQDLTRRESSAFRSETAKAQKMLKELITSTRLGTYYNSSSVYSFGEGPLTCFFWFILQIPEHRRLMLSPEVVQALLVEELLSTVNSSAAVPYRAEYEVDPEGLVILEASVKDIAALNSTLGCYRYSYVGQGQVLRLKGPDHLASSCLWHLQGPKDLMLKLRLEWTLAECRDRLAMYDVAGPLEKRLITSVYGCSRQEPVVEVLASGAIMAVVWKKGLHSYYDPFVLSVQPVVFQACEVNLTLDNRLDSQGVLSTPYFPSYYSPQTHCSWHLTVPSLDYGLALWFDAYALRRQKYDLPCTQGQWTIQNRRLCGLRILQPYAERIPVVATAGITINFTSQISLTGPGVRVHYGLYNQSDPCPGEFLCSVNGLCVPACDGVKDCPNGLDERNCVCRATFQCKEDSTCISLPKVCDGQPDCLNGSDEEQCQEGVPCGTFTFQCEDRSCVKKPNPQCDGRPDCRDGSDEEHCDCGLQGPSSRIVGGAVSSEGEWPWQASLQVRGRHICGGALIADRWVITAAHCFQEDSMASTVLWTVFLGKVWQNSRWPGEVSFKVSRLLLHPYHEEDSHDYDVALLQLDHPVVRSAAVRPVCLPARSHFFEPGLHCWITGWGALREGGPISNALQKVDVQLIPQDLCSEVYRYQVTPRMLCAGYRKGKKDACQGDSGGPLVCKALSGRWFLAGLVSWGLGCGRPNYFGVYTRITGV

| % inhibition of enzymatic activity, CM bioassay | IC50, CM bioassay | Binder |
| --- | --- | --- |
| 98% | 0.71 nM | B1 |
| 94% | 23 nM | B2 |
| 98% | 3 nM | B3 |
| 71% | > 10 nM | B4 |
| 65% | > 10 nM | B5 |
| 85% | 400 nM | B6 |

From US20220411487A1 (Regeneron, published 2022)
